Assay results: patent US6642368B1, “Programmed cell death and caspase-12” (The General Hospital Corporation, priority 1998, dated 2003)

How the values were obtained:
[1] = system: pro-caspase-12; test: In vitro cleavage of [35S]-labeled protein by partially purified caspase-12Δ2; type: biochemical, mouse; conditions: 1 hr at 37° C., 0.1 μg enzyme
From the text: (§1) FIGS. 8A-8C Protease activity of caspase-12Δ2. […] Proteins were run on 15% gel and detected by Coomassie brilliant blue staining. Arrowheads indicate polypeptides derived from caspase-12 proteins. FIG. 8B is a diagram of processing sites on caspase-12Δ and caspase-12Δ2. […] Reaction was stopped by boiling with the addition of sample buffer for SDS-polyacrylamide gel electrophoresis. The molecular sizes in kilodaltons are indicated at the left.
(§2) ICE, casp-2 and casp-3 were cloned into a pET-15b vector (Novagen) and their expression was induced in the presence of 0.2-0.3 mM IPTG (Wang, S., et a., J. Biol. Chem. 271:20580-20587 (1996); Cryns, V. L., et al., J. Biol. Chem. 271:31277-31282 (1996)). Bacterial lysates containing the ICE-like proteases were prepared as described (Wang, S., et al., J. Biol. Chem. 271:20580-20587 (1996); Cryns, V. L., et al., J. Biol. Chem. 271:31277-31282 (1996)). [^35S]-labeled proteins were prepared by in vitro transcription and translation using a TNT coupled reticulocyte lysate system (Promega) and [^35S]methionine (Amersham). Labeled proteins were incubated at 37° C. with purified caspase-12Δ2 or at 30° C. with E. coli lysates containing the caspase family members. […] Cleavage products were analyzed by either 10- or 15% SDS-polyacrylamide gel electrophoresis. […]

[2] = system: pro-ICE, pro-caspase-2 and pro-caspase-3; test: In vitro cleavage of [35S]-labeled proteins by partially purified caspase-12Δ2; type: biochemical; conditions: 1 hr or 3 hr incubation
From the text: as §1, §2

[3] = system: pro-IL-1β and poly(ADP-ribose) polymerase; test: Cleavage of preferred ICE and caspase-3 substrates by purified caspase-12Δ2; type: biochemical
Experimental: as §2, with “members. The reaction mixture contained 25 mM Hepes (pH 7.5) with 5 mM EDTA, 5 mM dithiothreitol, 10% sucrose, 10 μg/ml leupeptin and 250 μM phenylmethylsulfonyl fluoride. Amount of proteins used for cleavage reaction were: 0.1 μg for partially purified caspase-12Δ2, 25-70 μg for E. coli lysate.” for “members.”

- processing of pro-caspase-12 (48 kDa) into fragments [1]: can efficiently process
- cleavage of pro-ICE, pro-caspase-2 and pro-caspase-3 [2]: only faint bands of cleavage products
- cleavage of pro-IL-1β and poly(ADP-ribose) polymerase [3]: little activity
B1: caspase-12Δ2: truncated His-tagged caspase-12, amino acid residues 145-419 of SEQ ID NO:2 (protein)
chain: TLKLCPRDQFCKIKTERAKEIYPVMEKEGRTRLALIICNKKFDYLFDRDNADTDILNMQELLENLGYSVVLKENLTAQEMETELMQFAGRPEHQSSDSTFLVFMSHGILEGICGVKHRNKKPDVLHDDTIFKIFNNSNCRSLRNKPKILIMQACRGRYNGTIWVSTNKGIATADTDEERVLSCKWNNSITKAHVETDFIAFKSSTPHNISWKVGKTGSLFISKLIDCFKKYCWCYHLEEIFRKVQHSFEVPGELTQMPTIERVSMTRYFYLFPGN
modifications: His tag
